42 substances from patent US11306156 can be followed below.

Broadly, the Kd is a measure of binding affinity in units of concentration. Read a low Kd as higher affinity.

Chain of tissue factor (TF) (human) (P13726 33-251 limits assumed): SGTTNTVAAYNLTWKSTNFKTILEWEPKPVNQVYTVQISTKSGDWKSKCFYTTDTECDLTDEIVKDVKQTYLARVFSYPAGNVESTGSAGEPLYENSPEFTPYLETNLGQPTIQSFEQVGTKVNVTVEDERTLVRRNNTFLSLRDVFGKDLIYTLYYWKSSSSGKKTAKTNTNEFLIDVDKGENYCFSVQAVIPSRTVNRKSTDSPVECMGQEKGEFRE

One experiment concerns the target tissue factor (TF) antigen (UniProt P13726). As to the kind of experiment: SPR, Fab captured on anti-penta His, TF injected. (In general: SPR reads the build-up and loss of mass on a sensor chip optically.)
Substance “D3H44 Fab heterodimer H L124E_H172T / L V133G_N137K_S174R_S176R (H1L1 Fab of LCCA Set # 9121)” came in with a Change in KD with respect to wild type (-(log(KD design) - log(KD wt))) of 0.08 and a Kd of 0.13 nM.
For “D3H44 Fab heterodimer H L124E_L143D_K145M / L Q124K_V133G_Q160K_S176R (H1L1 Fab of LCCA Set # 9170)”, the Change in KD with respect to wild type (-(log(KD design) - log(KD wt))) was -0.24 and the Kd amounted to 0.27 nM.
For “D3H44 Fab heterodimer H L124E_L143D_K145M / L Q124K_V133G_S176R_T178K (H1L1 Fab of LCCA Set # 9178, 9179)”, in that order: -0.15 and 0.22 nM.
In turn, “D3H44 Fab heterodimer H L124E_L143D_K145T / L Q124K_V133G_S176R_T178K (H1L1 Fab of LCCA Set # 9220, 9216)” showed a Change in KD with respect to wild type (-(log(KD design) - log(KD wt))) of -0.08 and a Kd of 0.19 nM.
In the same order, the values of “D3H44 Fab heterodimer H L124E_L143D_K145T / L Q124K_V133G_S176R_T178R (H1L1 Fab of LCCA Set # 9229, 9225, 9228)” are -0.02 and 0.16 nM.
On to “D3H44 Fab heterodimer H L124E_L143E_K145M / L Q124K_V133G_Q160K_S176R (H1L1 Fab of LCCA Set # 9247)”, for which the Change in KD with respect to wild type (-(log(KD design) - log(KD wt))) is -0.26 and the Kd is 0.28 nM.
With “D3H44 Fab heterodimer H L124E_L143E_K145M / L Q124K_V133G_S176R_T178R (H1L1 Fab of LCCA Set # 9270)”, the Change in KD with respect to wild type (-(log(KD design) - log(KD wt))) was -0.29 and the dissociation constant (Kd) is 0.31 nM.
In the same order, the values of “D3H44 Fab heterodimer H L124E_L143E_K145T / L Q124K_V133G_Q160K_S176R (H1L1 Fab of LCCA Set # 9275)” are -0.12 and 0.2 nM.

The target is the same in a further experiment. As to the kind of experiment: SPR, Fab captured on anti-penta-His, TF as analyte, 1:1 fit.
The substance “D3H44 Fab heterodimer, H L124E_L143D_K145M / L Q124K_V133G_S176R_T178K” returned a Change in KD with respect to wild type (-(log(KD design) - log(KD wt))) of -0.15 and a dissociation constant Kd of 0.22 nM.
In the same order, the values of “D3H44 Fab heterodimer, H L124E_L143D_K145T / L Q124K_V133G_S176R_T178K” are -0.08 and 0.19 nM.
Turning to “D3H44 Fab heterodimer, H L124E_L143D_K145T / L Q124K_V133G_S176R_T178R”, the Change in KD with respect to wild type (-(log(KD design) - log(KD wt))) was -0.02 and the Kd stood at 0.15 nM.
In the same order, the values of “D3H44 Fab heterodimer, H L124E_L143E_K145M / L Q124K_V133G_S176R_T178K” are -0.19 and 0.24 nM.
In the same order, the values of “D3H44 Fab heterodimer, H L124E_L143E_K145M / L Q124K_V133G_S176R_T178R” are -0.29 and 0.31 nM.
For “D3H44 Fab heterodimer, H L124R_S186R / L V133G_S176D_T178E_T180E”, in that order: -0.15 and 0.22 nM.

Another experiment has as its target tissue factor (TF) (human) (UniProt P13726). As to the kind of experiment: SPR (ProteOn), Fab captured on anti-penta His, TF analyte, 1:1 fit.
As for “H1L1 Fab heterodimer of LCCA set 9573 (D3H44 Fab; H: L143A_Q179K; L: Q124E_V133Y_T180E)”, the Kd amounted to 0.27 nM and the change in KD vs wild type, -(log(KD design)-log(KD wt)) was -0.23.
On to “H1L1 Fab heterodimer of LCCA set 9704 (D3H44 Fab; H: L143E_K145T_S188L; L: Q124R)”, for which the Kd amounted to 0.21 nM and the change in KD vs wild type, -(log(KD design)-log(KD wt)) was -0.12.
On to “H1L1 Fab heterodimer of LCCA set 9725 (D3H44 Fab; H: L143E_K145T_S188L; L: Q124R_Q160K_T178R)”, for which the Kd was determined as 0.24 nM and the change in KD vs wild type, -(log(KD design)-log(KD wt)) was -0.19.
For “H1L1 Fab heterodimer of LCCA set 9732 (D3H44 Fab; H: L143K; L: Q124E_V133D_S176L)”, in that order: 0.28 nM and -0.25.
As to “H1L1 Fab heterodimer of LCCA set 9734 (D3H44 Fab; H: L143K_D146G; L: Q124E_V133D)”, the dissociation constant (Kd) came out at 0.26 nM and the change in KD vs wild type, -(log(KD design)-log(KD wt)) was -0.22.
Regarding “H1L1 Fab heterodimer of LCCA set 9737 (D3H44 Fab; H: L143R; L: Q124E_V133E)”, the dissociation constant Kd is 0.2 nM and the change in KD vs wild type, -(log(KD design)-log(KD wt)) was -0.09.
“H1L1 Fab heterodimer of LCCA set 9743 (D3H44 Fab; H: L143R; L: Q124E_V133E_S176L)” gave a dissociation constant Kd of 0.28 nM and a change in KD vs wild type, -(log(KD design)-log(KD wt)) of -0.25.
In the same order, the values of “H1L1 Fab heterodimer of LCCA set 9906 (D3H44 Fab; H: S188G; L: S176L)” are 0.11 nM and 0.14.
For the substance “H1L1 Fab heterodimer of LCCA set 9911 (D3H44 Fab; H: S188L; L: WT)”, the dissociation constant Kd was determined as 0.09 nM and the change in KD vs wild type, -(log(KD design)-log(KD wt)) was found to be 0.27.
The substance “H1L1 Fab heterodimer of LCCA set 9914 (D3H44 Fab; H: S188L_V190F; L: WT)” registered a Kd of 0.15 nM and a change in KD vs wild type, -(log(KD design)-log(KD wt)) of 0.01.
For “H1L1 Fab heterodimer of LCCA set 9917 (D3H44 Fab; H: S188L_V190Y; L: V133S)”, in that order: 0.1 nM and 0.2.
For the substance “H1L1 Fab heterodimer of LCCA set 9987 (D3H44 Fab; H: L143E_K145T; L: Q124R_T178R)”, the dissociation constant (Kd) is 0.11 nM and the change in KD vs wild type, -(log(KD design)-log(KD wt)) is 0.15.

The target in a further experiment is tissue factor (TF) antigen (UniProt P13726). As to the kind of experiment: SPR, Fab captured on anti-penta His surface, TF as analyte, 1:1 fit.
Chain of tissue factor (TF) antigen (P13726 33-251 limits assumed): as above
For the substance “D3H44 Fab heterodimer, H1L1 of LCCA Set # 9074 (H1 H172R_Q179K; L1 Q124E_Q160E_T180E)”, the Change in KD with respect to wild type (-(log(KD design) - log(KD wt))) was -0.01 and the dissociation constant Kd stood at 0.16 nM.
Take “D3H44 Fab heterodimer, H1L1 of LCCA Set # 9099 (H1 L124A_Q179K; L1 Q124E_V133W_S176T_T178L_T180E)”: the Change in KD with respect to wild type (-(log(KD design) - log(KD wt))) is -0.09 and the Kd was determined as 0.19 nM.
As for “D3H44 Fab heterodimer, H1L1 of LCCA Set # 9754 (H1 L45P_L143E_K145T_Q179E; L1 P44F_Q124R_Q160K_T178R)”, the Change in KD with respect to wild type (-(log(KD design) - log(KD wt))) was -0.28 and the dissociation constant (Kd) was determined as 0.3 nM.
Turning to “D3H44 Fab heterodimer, H1L1 of LCCA Set # 9760 (H1 Q179K; L1 Q124E_Q160E_T180E)”, the Change in KD with respect to wild type (-(log(KD design) - log(KD wt))) is -0.31 and the dissociation constant Kd was found to be 0.32 nM.
The substance “D3H44 Fab heterodimer, H1L1 of LCCA Set # 9817 (H1 Q39E_L143E_K145T; L1 Q38R_Q124R_Q160K_T178R)” showed a Change in KD with respect to wild type (-(log(KD design) - log(KD wt))) of -0.05 and a dissociation constant (Kd) of 0.18 nM.
In turn, “D3H44 Fab heterodimer, H1L1 of LCCA Set # 9818 (H1 Q39E_L143E_K145T_H172R; L1 Q38R_Q124R_Q160K_T178R)” registered a Change in KD with respect to wild type (-(log(KD design) - log(KD wt))) of -0.07 and a Kd of 0.18 nM.
“D3H44 Fab heterodimer, H1L1 of LCCA Set # 9819 (H1 Q39E_L143E_K145T_H172R_Q179E; L1 Q38R_Q124R_Q160K_T178R)” had a Change in KD with respect to wild type (-(log(KD design) - log(KD wt))) of 0.03 and a Kd of 0.15 nM.
On to “D3H44 Fab heterodimer, H1L1 of LCCA Set # 9820 (H1 Q39E_L143E_K145T_Q179E; L1 Q38R_Q124R_Q160K_T178R)”, for which the Change in KD with respect to wild type (-(log(KD design) - log(KD wt))) is -0.1 and the Kd was 0.2 nM.
As to “D3H44 Fab heterodimer, H1L1 of LCCA Set # 9822 (H1 Q39R_D146G_Q179K; L1 Q38E_Q124E_Q160E_T180E)”, the Change in KD with respect to wild type (-(log(KD design) - log(KD wt))) was 0.17 and the equilibrium dissociation constant (Kd) worked out at 0.11 nM.
In the same order, the values of “D3H44 Fab heterodimer, H1L1 of LCCA Set # 9823 (H1 Q39R_H172R_Q179K; L1 Q38E_Q124E_Q160E_T180E)” are -0.18 and 0.24 nM.
For “D3H44 Fab heterodimer, H1L1 of LCCA Sets # 9076, 9077 and 9078 (H1 H172T_Q179K; L1 Q124E_N137K_Q160E_S174R_T180E)”, in that order: 0.01 and 0.15 nM.
“D3H44 Fab heterodimer, H1L1 of LCCA Sets # 9090, 9091 and 9092 (H1 L124A_L143F_Q179K; L1 Q124E_V133W_S176T_T178E_T180E)”: the Change in KD with respect to wild type (-(log(KD design) - log(KD wt))) is -0.02 and the Kd amounted to 0.16 nM.
In the same order, the values of “D3H44 Fab heterodimer, H1L1 of LCCA Sets # 9094, 9095 and 9096 (H1 L124A_L143F_Q179K; L1 Q124E_V133W_S176T_T178L_T180E)” are -0.04 and 0.17 nM.
For “D3H44 Fab heterodimer, H1L1 of LCCA Sets # 9558 and 9559 (H1 L124W_L143E_K145T_Q179E; L1 Q124K_V133A_S176T_T178R)”, in that order: -0.24 and 0.27 nM.
In the same order, the values of “D3H44 Fab heterodimer, H1L1 of LCCA Sets # 9560 and 9561 (H1 L124W_L143E_K145T_Q179E; L1 Q124R_V133A_S176T_T178R)” are -0.13 and 0.21 nM.
For the substance “D3H44 Fab heterodimer, H1L1 of LCCA Sets # 9752 and 10552 (H1 L45P_L143E_K145T_H172R; L1 P44F_Q124R_Q160K_T178R)”, the Change in KD with respect to wild type (-(log(KD design) - log(KD wt))) was -0.27 and the equilibrium dissociation constant (Kd) turned out to be 0.29 nM.
